Read-outs that look alike come from different tables or passages of the source. *1 amine or outer side, *2 acyl side, *3 side chain or, on linkers, in order; H or OH if unused. Where no end group is shown, it is not given here. Side-chain parts run from the residue outwards. [ ]: non-standard residue; d: D form. The star is where a group is joined. γGlu = O=C(O)[C@H](CCC(=O)[*:2])N[*:1]; Palmitoyl = CCCCCCCCCCCCCCCC(=O)*; x70 = not defined here; Aib = CC(C)(N)C(=O)O

Results on ten molecules are retold here after patent US20140206608A1 (priority 2012, published 2014).

In experiment [1] the target is T1, human GIP receptor (hGIP R) (Homo sapiens, UniProt P48546).
T1 construct: expressed in transfected cells; host or cells: HEK-293
T1 sequence (P48546 22-466): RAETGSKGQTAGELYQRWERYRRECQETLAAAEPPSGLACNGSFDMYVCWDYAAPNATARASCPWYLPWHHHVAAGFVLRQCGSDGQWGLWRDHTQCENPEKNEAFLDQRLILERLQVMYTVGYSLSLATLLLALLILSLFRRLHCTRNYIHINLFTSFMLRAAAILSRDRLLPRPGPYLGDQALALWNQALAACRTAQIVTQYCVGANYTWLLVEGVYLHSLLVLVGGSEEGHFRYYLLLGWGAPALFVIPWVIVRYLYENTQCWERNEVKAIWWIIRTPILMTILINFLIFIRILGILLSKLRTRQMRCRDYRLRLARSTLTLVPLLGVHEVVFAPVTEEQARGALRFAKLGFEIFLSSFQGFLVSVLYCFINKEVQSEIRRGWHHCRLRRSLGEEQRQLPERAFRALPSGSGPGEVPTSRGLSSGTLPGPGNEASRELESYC
In words: cAMP response of HEK-293 cells stably expressing human GIP receptor (HTRF). In kind it is cell-based. The procedure:
(§1) cAMP content of cells was determined using a kit from Cisbio Corp. (cat. no. 62AM4PEC) based on HTRF (Homogenous Time Resolved Fluorescence). For preparation, cells were split into T175 culture flasks and grown overnight to near confluency in medium (DMEM/10% FBS). Medium was then removed and cells washed with PBS lacking calcium and magnesium, followed by proteinase treatment with accutase (Sigma-Aldrich cat. no. A6964). Detached cells were washed and resuspended in assay buffer (1×HBSS; 20 mM HEPES, 0.1% BSA, 2 mM IBMX) and cellular density determined. They were then diluted to 400000 cells/ml and 25 μl-aliquots dispensed into the wells of 96-well plates. For measurement, 25 μl of test compound in assay buffer was added to the wells, followed by incubation for 30 minutes at room temperature.
In general terms: In TR-FRET formats the signal depends on donor and acceptor labels being close together.

In experiment [2] the target is T2, human GLP-1 receptor (hGLP-1 R) (Homo sapiens, UniProt P43220).
T2 construct: expressed in transfected cells; host or cells: HEK-293
T2 sequence (P43220 24-463): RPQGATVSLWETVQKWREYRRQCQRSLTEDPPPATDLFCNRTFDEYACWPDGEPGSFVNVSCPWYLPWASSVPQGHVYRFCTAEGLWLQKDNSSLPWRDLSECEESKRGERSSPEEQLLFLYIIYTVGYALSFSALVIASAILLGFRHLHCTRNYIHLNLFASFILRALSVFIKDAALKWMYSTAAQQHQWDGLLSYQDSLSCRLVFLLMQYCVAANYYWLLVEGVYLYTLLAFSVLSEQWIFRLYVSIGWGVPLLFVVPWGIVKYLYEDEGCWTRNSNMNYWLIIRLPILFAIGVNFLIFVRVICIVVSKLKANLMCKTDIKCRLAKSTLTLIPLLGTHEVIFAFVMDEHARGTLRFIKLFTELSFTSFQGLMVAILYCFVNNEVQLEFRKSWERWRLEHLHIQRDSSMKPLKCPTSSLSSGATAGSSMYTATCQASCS
The experiment is described as follows: cAMP response of HEK-293 cells stably expressing human GLP-1 receptor (HTRF). It counts as cell-based. As to conditions: cAMP formation. The method, then:
as §1

Experiment [3] deals with T3, human glucagon receptor (hGLUC R) (Homo sapiens, UniProt P47871).
T3 construct: expressed in transfected cells; host or cells: HEK-293
T3 sequence (P47871 26-477): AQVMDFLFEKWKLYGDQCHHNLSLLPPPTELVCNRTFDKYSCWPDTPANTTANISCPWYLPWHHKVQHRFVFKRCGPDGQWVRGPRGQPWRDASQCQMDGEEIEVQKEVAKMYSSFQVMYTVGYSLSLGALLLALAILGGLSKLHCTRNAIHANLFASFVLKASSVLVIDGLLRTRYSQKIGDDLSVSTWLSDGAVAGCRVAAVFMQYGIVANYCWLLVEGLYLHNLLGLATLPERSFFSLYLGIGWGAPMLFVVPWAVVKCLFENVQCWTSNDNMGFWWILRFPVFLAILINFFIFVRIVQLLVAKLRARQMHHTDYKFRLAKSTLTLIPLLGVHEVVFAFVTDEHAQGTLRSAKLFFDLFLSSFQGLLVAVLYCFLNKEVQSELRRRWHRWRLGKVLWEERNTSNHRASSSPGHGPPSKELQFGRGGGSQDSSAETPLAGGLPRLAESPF
In words: cAMP response of HEK-293 cells stably expressing human glucagon receptor (HTRF). It counts as cell-based. As to conditions: EC50 hGLUC R, Table 7; cAMP formation. The method, then: as §1

The target of experiment [4] is T4, human GIP receptor (human, UniProt P48546 22-466).
T4 sequence (looked up): T1 sequence (P48546 22-466)
In words: cell-based or functional assay.

The target in experiment [5] is human GLP-1 receptor (human, UniProt P43220 24-463). The experiment is described as follows: cell-based or functional assay.
The target in experiment [6] is human glucagon receptor (human, UniProt P47871 26-477). The experiment is described as follows: cell-based or functional assay.
Chain of human glucagon receptor (P47871 26-477): as above

A word on the EC50: it is the concentration needed to bring the measured effect to its halfway point. Turning to `CCCCCCCCCCCCCCCC(=O)N[C@@H](CCC(=O)NCCCC[C@H](NC(=O)[C@H](CCC(N)=O)NC(=O)[C@@H](NC(=O)[C@H](CO)NC(=O)[C@H](CC(C)C)NC(=O)[C@H](CC(=O)O)NC(=O)[C@H](CO)NC(=O)[C@@H](NC(=O)[C@H](Cc1ccccc1)NC(=O)[C@@H](NC(=O)CNC(=O)[C@H](CCC(=O)O)NC(=O)C(C)(C)NC(=O)[C@@H](N)Cc1ccc(O)cc1)[C@@H](C)O)[C@@H](C)O)[C@@H](C)CC)C(=O)N[C@@H](CCC(=O)O)C(=O)N[C@@H](CCCCN)C(=O)N[C@@H](CCC(=O)O)C(=O)N[C@@H](C)C(=O)N[C@H](C(=O)N[C@@H](CCCNC(=N)N)C(=O)N[C@@H](CC(C)C)C(=O)N[C@@H](Cc1ccccc1)C(=O)N[C@H](C(=O)N[C@@H](CCC(=O)O)C(=O)N[C@@H](Cc1c[nH]c2ccccc12)C(=O)N[C@@H](CC(C)C)C(=O)N[C@@H](CCCCN)C(=O)N[C@@H](CC(N)=O)C(=O)NCC(=O)NCC(=O)N1CCC[C@H]1C(=O)N[C@@H](CO)C(=O)N[C@@H](CO)C(=O)NCC(=O)N[C@@H](C)C(=O)N1CCC[C@H]1C(=O)N1CCC[C@H]1C(=O)N1CCC[C@H]1C(=O)N[C@@H](CO)C(N)=O)[C@@H](C)CC)C(C)C)C(=O)O` [SEQ ID NO: 8, Y-Aib-E-G-T-F-T-S-D-L-S-I-Q-K(γE-x53)-EKEAVRLFIEWLKNGGPSSGAPPPS-NH2], the EC50 in experiment [1] (Table 7, cAMP formation, read-out: EC50 hGIP R) came to 0.0167 nM; in experiment [2] (Table 7, read-out: EC50 hGLP-1 R) it was 0.0201 nM.

As to `CCCCCCCCCCCCCCCC(=O)N[C@@H](CCC(=O)NCCCC[C@H](NC(=O)[C@H](CCC(N)=O)NC(=O)[C@@H](NC(=O)[C@H](CO)NC(=O)[C@H](CC(C)C)NC(=O)[C@H](CC(=O)O)NC(=O)[C@H](CO)NC(=O)[C@@H](NC(=O)[C@H](Cc1ccccc1)NC(=O)[C@@H](NC(=O)CNC(=O)[C@H](CCC(=O)O)NC(=O)C(C)(C)NC(=O)[C@@H](N)Cc1ccc(O)cc1)[C@@H](C)O)[C@@H](C)O)[C@@H](C)CC)C(=O)N[C@@H](CCC(=O)O)C(=O)N[C@@H](CCC(=O)O)C(=O)N[C@@H](CCC(=O)O)C(=O)N[C@@H](C)C(=O)N[C@H](C(=O)N[C@@H](CCCNC(=N)N)C(=O)N[C@@H](CC(C)C)C(=O)N[C@@H](Cc1ccccc1)C(=O)N[C@H](C(=O)N[C@@H](CCC(=O)O)C(=O)N[C@@H](Cc1c[nH]c2ccccc12)C(=O)N[C@@H](CC(C)C)C(=O)N[C@@H](CCCCN)C(=O)N[C@@H](C)C(=O)NCC(=O)NCC(=O)N1CCC[C@H]1C(=O)N[C@@H](CO)C(=O)N[C@@H](CO)C(=O)NCC(=O)N[C@@H](C)C(=O)N1CCC[C@H]1C(=O)N1CCC[C@H]1C(=O)N1CCC[C@H]1C(=O)N[C@@H](CO)C(N)=O)[C@@H](C)CC)C(C)C)C(=O)O` [SEQ ID NO: 11, Y-Aib-E-G-T-F-T-S-D-L-S-I-Q-K(γE-x53)-EEEAVRLFIEWLKAGGPSSGAPPPS-NH2], the midpoint of the response in experiment [1], the EC50, lay at 0.0057 nM.

As to `CCCCCCCCCCCCCCCCCC(=O)N[C@@H](CCC(=O)NCCCC[C@H](NC(=O)[C@H](CCC(N)=O)NC(=O)[C@@H](NC(=O)[C@H](CO)NC(=O)[C@H](CC(C)C)NC(=O)[C@H](CC(=O)O)NC(=O)[C@H](CO)NC(=O)[C@@H](NC(=O)[C@H](Cc1ccccc1)NC(=O)[C@@H](NC(=O)CNC(=O)[C@H](CCC(=O)O)NC(=O)C(C)(C)NC(=O)[C@@H](N)Cc1ccc(O)cc1)[C@@H](C)O)[C@@H](C)O)[C@@H](C)CC)C(=O)N[C@@H](CCC(=O)O)C(=O)N[C@@H](CCC(=O)O)C(=O)N[C@@H](CCC(=O)O)C(=O)N[C@@H](C)C(=O)N[C@H](C(=O)N[C@@H](CCCNC(=N)N)C(=O)N[C@@H](CC(C)C)C(=O)N[C@@H](Cc1ccccc1)C(=O)N[C@H](C(=O)N[C@@H](CCC(=O)O)C(=O)N[C@@H](Cc1c[nH]c2ccccc12)C(=O)N[C@@H](CC(C)C)C(=O)N[C@@H](CCCCN)C(=O)NC(C)(C)C(=O)NCC(=O)NCC(=O)N1CCC[C@H]1C(=O)N[C@@H](CO)C(=O)N[C@@H](CO)C(=O)NCC(=O)N[C@@H](C)C(=O)N1CCC[C@H]1C(=O)N1CCC[C@H]1C(=O)N1CCC[C@H]1C(=O)N[C@@H](CO)C(N)=O)[C@@H](C)CC)C(C)C)C(=O)O` [SEQ ID NO: 12, Y-Aib-E-G-T-F-T-S-D-L-S-I-Q-K(γE-x70)-E-E-E-A-V-R-L-F-I-E-W-L-K-Aib-G-G-P-S-S-G-A-P-P-P-S-NH2], the concentration for a half-maximal effect (EC50) in experiment [2] (EC50 hGLP-1 R, Table 7) came out at 0.0119 nM; in experiment [3] it was 95.9 nM.

As to “H-YAEGTFTSDVSIYLEGQAAKEFIAWLVKGR-NH2 [SEQ ID NO: 7, YAEGTFTSDVSIYLEGQAAKEFIAWLVKGR-NH2, reference compound]”, the EC50 is 3.66 nM in experiment [1] (Table 2, cAMP formation, read-out: EC50 hGIP R) and 0.005 nM in experiment [2] (Table 2, read-out: EC50 hGLP-1 R).

With Tyr(1)Ile(12)-GLP1 (peptide), the EC50 hGIP R [pM] (formed cAMP) in experiment [4] turned out to be 3660 pM. Further, in experiment [5], the EC50 hGLP-1 R [pM] (formed cAMP) was 5 pM.

For the molecule Y[Aib]EGTFTSDLSIQK([γGlu-x70])EEEAVRLFIEWLKAGGPSSGAPPPS-NH2 (reading uncertain) [SEQ ID NO: 10], in experiment [6], the “EC50 hGLUC R [pM] (formed cAMP)” value is > 1e+06 pM. In addition, the “EC50 hGIP R [pM] (formed cAMP)” value in experiment [4] came to 6.7 pM. In experiment [5], the “EC50 hGLP-1 R [pM] (formed cAMP)” value came to 12.5 pM.

B1: SEQ ID NO: 11 (peptide)
peptide: Y[Aib]EGTFTSDLSIQK([γGlu-Palmitoyl])EEEAVRLFIEWLKAGGPSSGAPPPS-NH2
modifications: N-terminus assumed
SMILES: CCCCCCCCCCCCCCCC(=O)N[C@@H](CCC(=O)NCCCC[C@H](NC(=O)[C@H](CCC(N)=O)NC(=O)[C@@H](NC(=O)[C@H](CO)NC(=O)[C@H](CC(C)C)NC(=O)[C@H](CC(=O)O)NC(=O)[C@H](CO)NC(=O)[C@@H](NC(=O)[C@H](Cc1ccccc1)NC(=O)[C@@H](NC(=O)CNC(=O)[C@H](CCC(=O)O)NC(=O)C(C)(C)NC(=O)[C@@H](N)Cc1ccc(O)cc1)[C@@H](C)O)[C@@H](C)O)[C@@H](C)CC)C(=O)N[C@@H](CCC(=O)O)C(=O)N[C@@H](CCC(=O)O)C(=O)N[C@@H](CCC(=O)O)C(=O)N[C@@H](C)C(=O)N[C@H](C(=O)N[C@@H](CCCNC(=N)N)C(=O)N[C@@H](CC(C)C)C(=O)N[C@@H](Cc1ccccc1)C(=O)N[C@H](C(=O)N[C@@H](CCC(=O)O)C(=O)N[C@@H](Cc1c[nH]c2ccccc12)C(=O)N[C@@H](CC(C)C)C(=O)N[C@@H](CCCCN)C(=O)N[C@@H](C)C(=O)NCC(=O)NCC(=O)N1CCC[C@H]1C(=O)N[C@@H](CO)C(=O)N[C@@H](CO)C(=O)NCC(=O)N[C@@H](C)C(=O)N1CCC[C@H]1C(=O)N1CCC[C@H]1C(=O)N1CCC[C@H]1C(=O)N[C@@H](CO)C(N)=O)[C@@H](C)CC)C(C)C)C(=O)O
Turning to B1, in experiment [6], the “EC50 hGLUC R [pM] (formed cAMP)” value was 429000 pM. Moreover, the “EC50 hGIP R [pM] (formed cAMP)” value in experiment [4] was found to be 5.7 pM. Besides, the “EC50 hGLP-1 R [pM] (formed cAMP)” value in experiment [5] was found to be 9.3 pM.

Turning to Y[Aib]EGTFTSDLSIQK([γGlu-x70])EEEAVRLFIEWLK[Aib]GGPSSGAPPPS-NH2 (reading uncertain) [SEQ ID NO: 9], the “EC50 hGLUC R [pM] (formed cAMP)” value in experiment [6] was determined as 164000 pM. Also, the “EC50 hGIP R [pM] (formed cAMP)” value in experiment [4] stood at 14.6 pM. The “EC50 hGLP-1 R [pM] (formed cAMP)” value in experiment [5] came out at 26.7 pM.

On to Y[Aib]EGTFTSDLSIQK([γGlu-x70])EEEAVRLFIEWLK[Aib]GGPSSGAPPPS-NH2 (reading uncertain) [SEQ ID NO: 12], for which, in experiment [6], the “EC50 hGLUC R [pM] (formed cAMP)” value is 95900 pM. Also, the “EC50 hGIP R [pM] (formed cAMP)” value in experiment [4] amounted to 14.6 pM. Further, the “EC50 hGLP-1 R [pM] (formed cAMP)” value in experiment [5] is 11.9 pM.

Take Y[Aib]EGTFTSDLSIQK([γGlu-x70])EKEAVRLFIEWLKAGGPSSGAPPPS-NH2 (reading uncertain) [SEQ ID NO: 13]: in experiment [6], the “EC50 hGLUC R [pM] (formed cAMP)” value was determined as 200000 pM. In experiment [4], the “EC50 hGIP R [pM] (formed cAMP)” value was found to be 16.8 pM. Moreover, the “EC50 hGLP-1 R [pM] (formed cAMP)” value in experiment [5] was 21.2 pM.
